Data: paper PMC9239997, “Structural basis for mitoguardin-2 mediated lipid transport at ER-mitochondrial membrane contact sites” (Nature Communications, 2022)

B1: mouse MIGA2 residues 275-570, wild type [mouse (Mus musculus)] / MSP domain of mouse VAPB (residues 1-125) fused to GST [mouse (Mus musculus)] (parent complex)
chain 1: GSLRLRADDEDSLTSEDSFFSATEIFESLQIGEYPLPLSRPAAAYEEALQLVKEGRVPCRTLRTELLGCYSDQDFLAKLHCVRQAFEGLLEERSNQIFFGEVGRQMVTGLMTKAEKSPKGFLESYEEMLSYALRPETWATTRLELEGRGVACMSFFDIVLDFILMDAFEDLENPPSSVLAVLRNRWLSDSFKETALATACWSVLKAKRRLLMVPDGFISHFYSVSEHVSPVLAFGFLGPKPQLSEVCAFFKHQIVQYLRDMFDLDNVRYTSVPALAEDILQLSRRRSEILLGYLGA
chain 2: MAKVEQVLSLEPQHELKFRGPFTDVVTTNLKLGNPTDRNVCFKVKTTVPRRYCVRPNSGVIDAGASLNVSVMLQPFDYDPNEKSKHKFMVQSMFAPPDTSDMEAVWKEAKPEDLMDSKLRCVFEL

Variants of: B1
Assay: GST pull-down; parent: 0.01; read off a plot

First: chain 1 GSLRLRADDEDSLTSEDEFFDATEIFESLQIGEYPLPLSRPAAAYEEALQLVKEGRVPCRTLRTELLGCYSDQDFLAKLHCVRQAFEGLLEERSNQIFFGEVGRQMVTGLMTKAEKSPKGFLESYEEMLSYALRPETWATTRLELEGRGVACMSFFDIVLDFILMDAFEDLENPPSSVLAVLRNRWLSDSFKETALATACWSVLKAKRRLLMVPDGFISHFYSVSEHVSPVLAFGFLGPKPQLSEVCAFFKHQIVQYLRDMFDLDNVRYTSVPALAEDILQLSRRRSEILLGYLGA [chain 1 S18E, chain 1 S21D]
Second: chain 1 GSLRLRADDEDSLTSEDEFFSATEIFESLQIGEYPLPLSRPAAAYEEALQLVKEGRVPCRTLRTELLGCYSDQDFLAKLHCVRQAFEGLLEERSNQIFFGEVGRQMVTGLMTKAEKSPKGFLESYEEMLSYALRPETWATTRLELEGRGVACMSFFDIVLDFILMDAFEDLENPPSSVLAVLRNRWLSDSFKETALATACWSVLKAKRRLLMVPDGFISHFYSVSEHVSPVLAFGFLGPKPQLSEVCAFFKHQIVQYLRDMFDLDNVRYTSVPALAEDILQLSRRRSEILLGYLGA [chain 1 S18E]
The screen value of the first is higher: ~1 for the first, ~0.01 for the second.

chain 1 GSLRLRADDEDSLTSEDSFFDATEIFESLQIGEYPLPLSRPAAAYEEALQLVKEGRVPCRTLRTELLGCYSDQDFLAKLHCVRQAFEGLLEERSNQIFFGEVGRQMVTGLMTKAEKSPKGFLESYEEMLSYALRPETWATTRLELEGRGVACMSFFDIVLDFILMDAFEDLENPPSSVLAVLRNRWLSDSFKETALATACWSVLKAKRRLLMVPDGFISHFYSVSEHVSPVLAFGFLGPKPQLSEVCAFFKHQIVQYLRDMFDLDNVRYTSVPALAEDILQLSRRRSEILLGYLGA [chain 1 S21D] was tested, and the screen value was ~0.4.
